Experiments:
[1] = biological target: the molecule itself; experiment: SEC-MALS; Superdex 75 10/300 GL, 10 mg/mL, 20 mM Tris pH 8.0, 200 mM NaCl; data not shown
[2] = biological target: the molecule itself; experiment: SEC; analytical SEC, Superose 6 PC 3.2/30, 5.0 mg/mL, 20 mM Tris pH 8.0 with 200, 500 or 1000 mM NaCl, 0.05 mL/min; apparent molecular weight from gel filtration standards

B1: D. melanogaster Oskar LOTUS domain, residues 139-241 (Losk139–241), purified (domain or fragment)
chain: MTIIESNYISVREEYPDIDSEVRAILLSHAQNGITISSIKSEYRKLTGNPFPLHDNVTDFLLTIPNVTAECSESGKRIFNLKASLKNGHLLDMVLNQKERTSDLEVLFQ
notes: Oskar, D. melanogaster, LOTUS domain residues 139-241 (Losk139–241); numbers on the long isoform (1-606); remnant of the 3C protease cleavage site left at the C-terminus after removal of the decahistidine tag; Crystal form 4 was grown from HgCl2-derivatised protein; also called fly LOTUS domain; source: E. coli BL21(DE3), purified (Ni-NTA, 3C protease cleavage, gel filtration); not shown: His10, …
[1]
  stoichiometry N: 2
[2]
  stoichiometry N: ~2
